Here are results for 42 molecules from patent US20260365696A1, “INHIBITORS OF PTP1B / NCK1 INTERACTION AND METHODS OF MAKING AND USING SAME” (Radella Pharmaceuticals LLC, priority 2023, published 2026).

Where two headings read alike, the source gives them in different places. No end group written: not given here. Some results are limits rather than exact numbers.

One assay has as its system db/db mice. Kind of assay: db/db genetic mouse model of diabetes and obesity. Type of assay: in vivo. The text has this: Animals: All animals were housed and tested following European (Directive on the Protection of Animals used for Scientific Purposes, 2010/63/EU) and UK Home Office regulations. Experiments were approved by the University Ethics Board and carried out in accordance with the Animal (Scientific Procedures) Act 1986 and following ARRIVE guidelines. Db/db male mice (~4 weeks old) were purchased from Jackson, USA. All mice received standard mouse chow diet and had ad libitum access to food and water and were kept in a 12 h light/dark cycle.
Treatments: Mice were assigned and counterbalanced according to their body weights in to the following groups: control PBS (n=10); MD18 at 15 mg/kg (n=7), 30 mg/kg (n=8), or 45 mg/kg (n=7); or MD20 at 15 mg/kg (n=9), 30 mg/kg (n=10) or 45 mg/kg (n=7). MD18 and MD20 were administered once daily via subcutaneous (SC) injection for 41 days, whereas control mice received a daily SC injection of vehicle (PBS). MD18 and MD20 were kept in −20 °C and dissolved in sterile phosphate buffered saline (PBS).
Body weights and body mass composition: Body weights were recorded twice weekly during the study, and fat mass and lean mass composition was analysed using an EchoMRI scanner (EchoMedical Systems, Houston, TX, U.S.A.).
Metabolic measurements: All animals were five-hour fasted before obtaining basal glucose measurements and GTT, ITT, and corresponding treatments were administered 1 hour before glucose measurements. Tail blood glucose was measured using AlphaTRAK 2 glucose strips and glucometer (Abbot, UK), or blood was collected and glucose assay (AB65333, Abcam) was performed where readings were too high to be recorded via glucometer. Human Actrapid Insulin (NovaNordisk) at 1 IU/kg dose was administered during ITT.
Serum and liver assays: Trunk-derived blood was collected from 5 h-fasted mice into serum separator microtubes and kept at −80 °C. Serum was used for insulin (#EZRMI-13K, Merck) and leptin (#90030, Crystal Chem) analyses.
Statistical analyses: Data were reported as means±SEM and analysed using one- or two-way ANOVA with Bonferroni post hoc tests, as appropriate. GraphPad Prism (V8, GraphPad Software, Inc., San Diego, California, USA) was used for statistical analyses. P-values <0.05 were considered significant.

The next assay has as its target T1, SH3-2 domain of NCK1 (Homo sapiens, UniProt P16333).
T1 construct: To amplify the NCK1 SH3-2 domain, the primers; 10xHis tag with TEV site (vector pSF-OXB20-NH2-10HIS) (N, cleaved yes); made in house; host or cells: E. coli C43(DE3)
As to the kind of experiment: Isothermal titration calorimetry (ITC) binding to NCK1 SH3-2 domain. The essentials:
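Measured at 25 °C, pH 8.0 (10 mM sodium buffer, sodium chloride), by calorimetric titration of 3-7.5 mM peptide into 0.125-0.3 mM recombinant NCK1 SH3-2 domain with His tag removed, using 20 injections. Affinities are means of three experiments, fitted with stoichiometry 0.8-1.2.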

For assay [1], the target named is T2, NCK1 SH3-2 domain (human).
T2 chain: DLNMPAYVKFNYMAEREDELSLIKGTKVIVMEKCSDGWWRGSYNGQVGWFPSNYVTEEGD
Kind of assay: ITC. (In ITC the heat of successive injections is recorded.)

Assay [2] addresses T2, NCK1 SH3-2 domain. Kind of assay: ITC.
For assay [3], the target named is T2, NCK1 SH3-2 domain. As to the kind of experiment: ITC.
The target in assay [4] is T2, NCK1 SH3-2 domain. Kind of assay: ITC.
In assay [5] the target is T2, NCK1 SH3-2 domain. As to the kind of experiment: ITC.
In assay [6] the target is T2, NCK1 SH3-2 domain. As to the kind of experiment: ITC.

As usually defined, the Kd is the free concentration of one partner at which half of the binding sites on the other are occupied at equilibrium, for simple one-to-one binding. Low readings indicate a tighter complex, high ones a looser complex. With Ac-PPRPPKR-NH2 [MD18, Ac-PPRPPKR-NH2], the leptin levels entry with db/db mice (15 mg/kg SC daily, about 6 weeks, vs control) is “A trend for decreased leptin levels”. For the same molecule, the “glucose clearance during GTT” value with db/db mice (15 mg/kg SC daily, week 4, vs control) is listed as “better glucose clearance at 15-minutes post-glucose injection”. Moreover, the fat mass gain result with db/db mice (15 mg/kg and 30 mg/kg SC daily) was “inhibited fat mass gain”. Further, the body weight gain entry in the assay on db/db mice (15 mg/kg and 30 mg/kg SC daily, vs control) is “significantly inhibited body weight gain”. For the same molecule, the fasted insulin levels entry in the assay on db/db mice (30 mg/kg SC daily, about 6 weeks, vs control) is reported as “A trend for lower fasted insulin levels”. Besides, the basal glucose levels entry in the assay on db/db mice (5-hour-fasted, SC daily, vs vehicle) is recorded as “No significant differences”. Also, in the assay on db/db mice (SC daily, compared to MD20), the “efficacy with respect to inhibiting body weight, inhibiting fat mass gain, and improving glucose clearance during GTT” value was “better efficacy as compared to MD20 treatment”. Moreover, the “insulin tolerance test (ITT)” value in the assay with db/db mice (SC daily, week 6, 1 IU/kg insulin, vs control) is reported as “did not detect any significant differences”. For the same molecule, the Kd is no more than 300 µM at SH3-2 domain of NCK1 (Peptide truncation analysis, ITC, 25 °C, pH 8.0) and less than 193 µM at SH3-2 domain of NCK1 (ability to bind SH3-2 domain of NCK1, stated in text).
In the assay with NCK1 SH3-2 domain [1], Ac-WKELSHEDLEPPPEHIPPPPRPPKR-NH2 [MH135] yielded a Kd of less than 300 µM.
For Ac-PRAPKR-NH2 [MH010], the equilibrium dissociation constant (Kd) with NCK1 SH3-2 domain [2] was greater than 1000 µM.
For the molecule Ac-PPPEHIPPPPRPPKRILEPH-NH2 [MH089], the Kd with NCK1 SH3-2 domain [1] was less than 300 µM.
In the assay with NCK1 SH3-2 domain [3], Ac-PPRKPKR-NH2 [MH104] registered a dissociation constant Kd of less than 600 µM.
Ac-PAPPKR-NH2 [MH009] came in with an equilibrium dissociation constant (Kd) in the assay with NCK1 SH3-2 domain [2] of less than 300 µM.
For Ac-PPRSPKR-NH2 [MH108], in the assay with NCK1 SH3-2 domain [4], the binding result was “no binding”.
For the molecule Ac-PPRCPKR-NH2 [MH129], the binding result in the assay with NCK1 SH3-2 domain [4] is listed as “no binding”.
In turn, Ac-PPRRPKR-NH2 [MH062] showed a Kd in the assay with NCK1 SH3-2 domain [3] of less than 600 µM.
Consider Ac-PRPPAR-NH2 [MH012], for which, in the assay with NCK1 SH3-2 domain [2], the Kd is less than 600 µM.
On to Ac-PPRWPKR-NH2 [MH118], for which, in the assay with NCK1 SH3-2 domain [4], the binding result is recorded as “no binding”.
For Ac-PPRQPKR-NH2 [MH131], the binding result with NCK1 SH3-2 domain [4] was “no binding”.
On to Ac-HEDLEPPPEHIPPPPRPPKR-NH2 [MH090], for which the Kd with NCK1 SH3-2 domain [1] is less than 300 µM.
Still for that read-out and setting: with Ac-PPPEHIPPPPRPPKRILEPHNGKCREFFPN-NH2 [MH137] the figure was less than 300 µM.
On to Ac-PPPRPP-NH2 [MH036], for which the Kd with NCK1 SH3-2 domain [5] was greater than 1000 µM.
Take Ac-PPRLPKR-NH2 [MH101]: the Kd in the assay with NCK1 SH3-2 domain [3] is less than 600 µM.
Ac-PPEHIP-NH2 [MH040] gave a dissociation constant (Kd) with NCK1 SH3-2 domain [5] greater than 1000 µM.
As to Ac-PPRPPKRILE-NH2 [MH065], the Kd in the assay with NCK1 SH3-2 domain [1] was less than 300 µM.
Ac-ARPPKR-NH2 [MH008] registered a Kd with NCK1 SH3-2 domain [2] greater than 1000 µM.
Same read-out and setting: with Ac-PRPAKR-NH2 [MH011] the figure was greater than 1000 µM; with Ac-PRPPKA-NH2 [MH013], greater than 1000 µM.
On to Ac-PPRNPKR-NH2 [MH127], for which the binding result in the assay with NCK1 SH3-2 domain [4] is “no binding”.
Same read-out and setting: the same measure for Ac-PPRMPKR-NH2 [MH111]: “no binding”.
Regarding Ac-PPRPPKRI-NH2 [MH063], the equilibrium dissociation constant (Kd) in the assay with NCK1 SH3-2 domain [6] and with NCK1 SH3-2 domain [1] was less than 300 µM each time.
The molecule Ac-IPPPPR-NH2 [MH038] had a dissociation constant Kd in the assay with NCK1 SH3-2 domain [5] greater than 1000 µM.
Same read-out and setting: with Ac-EHIPPP-NH2 [MH039] the figure was greater than 1000 µM.
With Ac-PPPEHIPPPPRPPKRILE-NH2 [MH077], the equilibrium dissociation constant (Kd) with NCK1 SH3-2 domain [1] was less than 300 µM.
The molecule Ac-PPPRPPK-NH2 [MH041] registered a Kd in the assay with NCK1 SH3-2 domain [5] greater than 1000 µM.
In the assay with NCK1 SH3-2 domain [3], Ac-PPRFPKR-NH2 [MH067] showed a Kd greater than 600 µM.
Turning to Ac-PPRGPKR-NH2 [MH093], the binding result in the assay with NCK1 SH3-2 domain [4] is reported as “no binding”.
With Ac-PPRIPKR-NH2 [MH097], the equilibrium dissociation constant (Kd) with NCK1 SH3-2 domain [3] is less than 300 µM.
Same read-out and setting: with Ac-PPRYPKR-NH2 [MH121] the figure was less than 600 µM.
Ac-PPPPRP-NH2 [MH037]: the Kd in the assay with NCK1 SH3-2 domain [5] is greater than 1000 µM.
Consider Ac-PPRDPKR-NH2 [MH128], for which the binding result with NCK1 SH3-2 domain [4] is recorded as “no binding”.
On to Ac-PPRVPKR-NH2 [MH125], for which the Kd in the assay with NCK1 SH3-2 domain [3] is less than 300 µM.
In the assay with NCK1 SH3-2 domain [3], Ac-PPRTPKR-NH2 [MH115] gave a Kd of less than 600 µM.
For the molecule Ac-PPRPPK-NH2 [MH035], the Kd with NCK1 SH3-2 domain [5] is greater than 1000 µM.
The molecule Ac-PPRPPKRIL-NH2 [MH064] registered an equilibrium dissociation constant (Kd) in the assay with NCK1 SH3-2 domain [1] of less than 300 µM.
For the molecule Ac-PPREPKR-NH2 [MH130], the binding result with NCK1 SH3-2 domain [4] is on record as “no binding”.
In turn, SVQDQWKELSHEDLEPPPEHIPPPPRPPKR-NH2 (not fully specified (N-terminus)) [MH136] yielded a Kd with NCK1 SH3-2 domain [1] of less than 300 µM.
Consider Ac-PPRHPKR-NH2 [MH132], for which the binding result with NCK1 SH3-2 domain [4] was “no binding”.
Regarding Ac-PPPEHIPPPPRPPKRILEPHNGKCR-NH2 [MH134], in the assay with NCK1 SH3-2 domain [1], the dissociation constant Kd is less than 300 µM.
